This note sets out measurements from US20190375844A1 (OSE IMMUNOTHERAPEUTICS, published 2019).

For assay [1], the target named is T1, recombinant hCD127 (Sino Biologicals, reference 10975-H08H) (human) (UniProt P16871).
T1 sequence: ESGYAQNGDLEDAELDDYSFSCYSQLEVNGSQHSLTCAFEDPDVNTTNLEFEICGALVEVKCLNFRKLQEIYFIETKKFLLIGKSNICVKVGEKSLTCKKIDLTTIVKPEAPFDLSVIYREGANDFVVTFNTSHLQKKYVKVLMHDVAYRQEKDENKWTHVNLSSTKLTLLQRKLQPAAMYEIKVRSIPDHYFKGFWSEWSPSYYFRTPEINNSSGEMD
The assay can be described thus: method not stated.

Assay [2] concerns the target T2, recombinant hCD127 (Sino Biologicals, reference 10975-H08H) (human, UniProt P16871 21-239).
T2 construct: Bought recombinant protein; In the Blitz assay the protein is said to be captured by an Fc fragment, and a second catalogue number (11612-H08H) is printed; also called human CD127 recombinant protein; recombinant human CD127
T2 chain: T1 sequence
The assay can be described thus: method not stated.

Assay [3] deals with T3, human CD127 (IL-7Rα) on human PBMC (human, UniProt P16871 21-459).
T3 chain: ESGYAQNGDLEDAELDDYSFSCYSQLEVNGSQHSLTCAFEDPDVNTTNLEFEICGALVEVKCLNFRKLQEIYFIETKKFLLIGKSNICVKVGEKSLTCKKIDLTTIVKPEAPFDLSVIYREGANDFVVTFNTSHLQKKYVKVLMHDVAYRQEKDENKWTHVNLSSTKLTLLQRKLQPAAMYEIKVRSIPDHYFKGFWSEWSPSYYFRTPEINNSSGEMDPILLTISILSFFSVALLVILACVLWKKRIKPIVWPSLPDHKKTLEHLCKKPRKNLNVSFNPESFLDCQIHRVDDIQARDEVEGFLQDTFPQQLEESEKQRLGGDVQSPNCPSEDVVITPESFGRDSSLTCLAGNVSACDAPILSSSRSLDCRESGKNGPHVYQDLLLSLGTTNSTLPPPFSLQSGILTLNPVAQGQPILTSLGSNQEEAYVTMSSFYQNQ
The experiment in a line: cell-based or functional assay.

Assay [4] addresses T2, recombinant hCD127 (Sino Biologicals, …). The experiment in a line: ELISA, hCD127 immobilized on plastic at 1 µg/ml (given as ED50). Here is the method:
(§1) For activity ELISA assay, recombinant hCD127 (Sino Biologicals, Beijing, China; reference 10975-H08H) was immobilized on plastic at 1 μg/ml and dilutions of anti-CD127 antibody were added to measure binding.
On the technique in general: An ELISA detects its analyte on a solid surface through an enzyme-linked reagent.

The target is the same in assay [5]. The experiment in a line: Blitz (BLI), hCD127 captured on anti-human IgG Fc (AHC) biosensor, antibody at 20 µg/mL. As for the experimental part: Recombinant hCD127 (Sino Biologicals, Beijing, China; reference 10975-H08H)/recombinant protein (Sino Biological Cat: 11612-H08H) was immobilized at 50 μg/ml by Fc fragment into anti-human IgG Fc (AHC) biosensor (Forte Bio, 18-5063) for 30 seconds. Then, anti-CD127 antibodies were added at 20 μg/mL (saturating concentration) for an association period of 120 seconds, followed by a dissociation period of anti-CD127 antibody in kinetics buffer for 120 seconds. Data analysis was made with the Blitz pro 1.2 software, which calculated association constant (ka) and dissociation constant (kd) and determined the affinity constant KD […].

The target is the same in assay [6]. The experiment in a line: ELISA on CD127 after storage of the antibody 7 days at 42° C. (given as ED50). Here is the method:
as §1
(§2) Stability of the antibodies was studies by incubating the antibodies for 7, 14, or 30 days at 4° C., 25° C. and 42° C.

Assay [7] shares this target. The experiment in a line: ELISA on CD127 after storage of the antibody 7 days at 25° C. (given as ED50). As for the experimental part: as §1, §2
For assay [8] the target is unchanged. The experiment in a line: ELISA on CD127 after storage of the antibody 14 days at 42° C. (given as ED50). Here is the method:
as §1, §2

The target is the same in assay [9]. The experiment in a line: ELISA on CD127 after storage of the antibody 30 days at 4° C. (given as ED50). Here is the method: as §1, §2
For assay [10] the target is unchanged. The experiment in a line: ELISA on CD127 after storage of the antibody 30 days at 42° C. (given as ED50). As for the experimental part: as §1, §2
Assay [11] has the same target. The assay can be described thus: ELISA on CD127 after storage of the antibody 30 days at 25° C. (given as ED50). As for the experimental part:
as §1, §2

The target is the same in assay [12]. The experiment in a line: ELISA on CD127 after storage of the antibody 14 days at 4° C. (given as ED50). As for the experimental part: as §1, §2
For assay [13] the target is unchanged. The experiment in a line: ELISA on CD127 after storage of the antibody 7 days at 4° C. (given as ED50). As for the experimental part: as §1, §2
Assay [14] shares this target. The assay can be described thus: ELISA on CD127 after storage of the antibody 14 days at 25° C. (given as ED50). Here is the method:
as §1, §2

Positions count from the first letter of the chain named. Numbers in names are those of the source.

B1: MD707-13 (antibody, from another filing, human IgG4, V domains shown)
VH: QLKESGPGLVQPSQTLSLTCTVSGLSLPNNNIAWIRQSPGKGLEWMGVIWSNGDTDYNSAIRSRLSISRDSSKSQVFLRMNSLQSEDTAMYFCAREGMTTLDYWGQGVVVTVSS
VL: EIVLTQSPTTMAASPGEKVTITCRASSSVSYMHWFQQKSGSSPKPWIYDSSDLASGVPDRFSGSGSGTSYSLTISSMEAEDAATYYCLQRSSYPRTFGGGTKLELKR
The Kd is the constant that tells how readily two partners part at equilibrium. In the case of B1, the Kd in [1] amounted to 0.5 nM.

B2: 1A11 (antibody, V domains shown)
VH: EVQLQQSGPELLKPGASMKISCKASGYSFTGYTMNWVKQSHGKNLEWIGLINPYNGVTSYNQKFKGKATLTVAKSSSTAYMELLSLTSEDSAVYYCARGDGNYWYFDVWGAGTTVTVSS
VL: EIVLTQSPAITAASLGQKVTITCSASSSVTYMHWYQQKSGTSPKPWIYEISKLASGVPVRFSGSGSGTSYSLTISSMEAEDAAIYYCQEWNYPYTFGGGTKLEIK
As to B2, the Kd in assay [2] was 0.6 nM.

B3: N13B2-h3 (antibody, V domains shown)
VH: QVQLVESGGGLVKPGGSLRLSCAVSGFTLSDYYMAWIRQAPGKGLEWVSTISASGLRTYYPDSVKGRFTISRDNAKNSLYLQMNSLRAEDTAVYYCARPLSAHYGFNYFDYWGQGTLVTVSS
VL: EIVMTQSPATLSVSPGERATLSCRTSEDIYQGLAWYQQKPGQAPRLLIYSANTLHIGIPARFSGSGSGTEFTLTISSLQSEDFAVYYCQQYYDYPLAFGGGTKVEIKR
notes: also called humanized N13B2 of WO 2015/189302
As a reminder, the EC50 is the midpoint of the concentration-response curve. The term koff denotes the rate constant with which the complex falls apart. The term kon denotes the second-order rate constant of association. B3: in assay [3], the “IC50-MFI, inhibition of IL7-induced STAT5 phosphorylation in CD3+ human PBMC” value (“IC50-MFI, inhibition” below) came out at 0.0215 µg/mL. In addition, in assay [4], the EC50 amounted to 0.0168 µg/mL. Moreover, in assay [5], the dissociation constant Kd worked out at 2.33 nM, the koff came to 0.00267 s⁻¹ and the kon was found to be 1.15e+06 M⁻¹ s⁻¹.

B4: N13B2-hVL3 (antibody, V domains shown)
VH: B3 VH
VL: DIQMTQSPSSLSASVGDRVTITCRTSEDIYQGLAWYQQKPGKAPKLLVYSANTLHIGVPSRFSGSGSGTDYTLTISSLQPEDFATYFCQQYYDYPLAFGGGTKVEIKR
For the molecule B4, in assay [3], the “IC50-MFI, inhibition” value was 0.0272 µg/mL.

B5: N13B2-hVL5 (antibody, V domains shown)
VH: B3 VH
VL: B4 VL with F87Y
notes: also called N13B2-VL5-F87Y
On to B5, for which the “IC50-MFI, inhibition” value in [3] is 0.0273 µg/mL. For the same molecule, the EC50 in assay [4] was found to be 0.0148 µg/mL. Further, in [5], the Kd was 2.63 nM, the koff was determined as 0.00266 s⁻¹ and the kon came to 1.01e+06 M⁻¹ s⁻¹.

B6: N13B2-hVL4 (antibody, V domains shown)
VH: B3 VH
VL: B4 VL with V48L
notes: also called N13B2-VL4-V48L
For B6, the “IC50-MFI, inhibition” value in assay [3] was 0.0161 µg/mL. The EC50 in assay [4] was 0.0126 µg/mL. In addition, in assay [5], the Kd came to 2.71 nM, the off-rate (koff) amounted to 0.00281 s⁻¹ and the kon turned out to be 1.04e+06 M⁻¹ s⁻¹.

B7: N13B2-hVL6 (antibody, V domains shown)
VH: B3 VH
VL: B4 VL with V48L, F87Y
notes: also called N13B2-h3VL6; N13B2-VL6-V48L-F87Y
Regarding B7, the half-maximal effective concentration (EC50) in [6] is 0.0562 µg/mL; in [7], 0.0478 µg/mL; in [8], 0.0406 µg/mL; in assay [9], 0.047 µg/mL; in [10], 0.0587 µg/mL; in [11], 0.0402 µg/mL. The EC50 in assay [12] came out at 0.0628 µg/mL; in assay [13], 0.0553 µg/mL; in [4], 0.0095 µg/mL; in assay [14], 0.0526 µg/mL. Further, in assay [3], the “IC50-MFI, inhibition” value amounted to 0.0168 µg/mL. The results for the equilibrium dissociation constant (Kd) in [2] and in [5] were 0.2 nM and 2.53 nM, respectively. The koff in assay [5] came to 0.00266 s⁻¹. For the same molecule, the kon in assay [5] came out at 1.05e+06 M⁻¹ s⁻¹.
